Among the data in PMC12618757 are average stretch-induced current values, retold here.

The target in this experiment is EGFP-mPiezo1 (murine Piezo1 fused to EGFP) (murine) (UniProt E2JF22).
UniProt E2JF22, sequence (E2JF22 whole entry, the tested form may be a part): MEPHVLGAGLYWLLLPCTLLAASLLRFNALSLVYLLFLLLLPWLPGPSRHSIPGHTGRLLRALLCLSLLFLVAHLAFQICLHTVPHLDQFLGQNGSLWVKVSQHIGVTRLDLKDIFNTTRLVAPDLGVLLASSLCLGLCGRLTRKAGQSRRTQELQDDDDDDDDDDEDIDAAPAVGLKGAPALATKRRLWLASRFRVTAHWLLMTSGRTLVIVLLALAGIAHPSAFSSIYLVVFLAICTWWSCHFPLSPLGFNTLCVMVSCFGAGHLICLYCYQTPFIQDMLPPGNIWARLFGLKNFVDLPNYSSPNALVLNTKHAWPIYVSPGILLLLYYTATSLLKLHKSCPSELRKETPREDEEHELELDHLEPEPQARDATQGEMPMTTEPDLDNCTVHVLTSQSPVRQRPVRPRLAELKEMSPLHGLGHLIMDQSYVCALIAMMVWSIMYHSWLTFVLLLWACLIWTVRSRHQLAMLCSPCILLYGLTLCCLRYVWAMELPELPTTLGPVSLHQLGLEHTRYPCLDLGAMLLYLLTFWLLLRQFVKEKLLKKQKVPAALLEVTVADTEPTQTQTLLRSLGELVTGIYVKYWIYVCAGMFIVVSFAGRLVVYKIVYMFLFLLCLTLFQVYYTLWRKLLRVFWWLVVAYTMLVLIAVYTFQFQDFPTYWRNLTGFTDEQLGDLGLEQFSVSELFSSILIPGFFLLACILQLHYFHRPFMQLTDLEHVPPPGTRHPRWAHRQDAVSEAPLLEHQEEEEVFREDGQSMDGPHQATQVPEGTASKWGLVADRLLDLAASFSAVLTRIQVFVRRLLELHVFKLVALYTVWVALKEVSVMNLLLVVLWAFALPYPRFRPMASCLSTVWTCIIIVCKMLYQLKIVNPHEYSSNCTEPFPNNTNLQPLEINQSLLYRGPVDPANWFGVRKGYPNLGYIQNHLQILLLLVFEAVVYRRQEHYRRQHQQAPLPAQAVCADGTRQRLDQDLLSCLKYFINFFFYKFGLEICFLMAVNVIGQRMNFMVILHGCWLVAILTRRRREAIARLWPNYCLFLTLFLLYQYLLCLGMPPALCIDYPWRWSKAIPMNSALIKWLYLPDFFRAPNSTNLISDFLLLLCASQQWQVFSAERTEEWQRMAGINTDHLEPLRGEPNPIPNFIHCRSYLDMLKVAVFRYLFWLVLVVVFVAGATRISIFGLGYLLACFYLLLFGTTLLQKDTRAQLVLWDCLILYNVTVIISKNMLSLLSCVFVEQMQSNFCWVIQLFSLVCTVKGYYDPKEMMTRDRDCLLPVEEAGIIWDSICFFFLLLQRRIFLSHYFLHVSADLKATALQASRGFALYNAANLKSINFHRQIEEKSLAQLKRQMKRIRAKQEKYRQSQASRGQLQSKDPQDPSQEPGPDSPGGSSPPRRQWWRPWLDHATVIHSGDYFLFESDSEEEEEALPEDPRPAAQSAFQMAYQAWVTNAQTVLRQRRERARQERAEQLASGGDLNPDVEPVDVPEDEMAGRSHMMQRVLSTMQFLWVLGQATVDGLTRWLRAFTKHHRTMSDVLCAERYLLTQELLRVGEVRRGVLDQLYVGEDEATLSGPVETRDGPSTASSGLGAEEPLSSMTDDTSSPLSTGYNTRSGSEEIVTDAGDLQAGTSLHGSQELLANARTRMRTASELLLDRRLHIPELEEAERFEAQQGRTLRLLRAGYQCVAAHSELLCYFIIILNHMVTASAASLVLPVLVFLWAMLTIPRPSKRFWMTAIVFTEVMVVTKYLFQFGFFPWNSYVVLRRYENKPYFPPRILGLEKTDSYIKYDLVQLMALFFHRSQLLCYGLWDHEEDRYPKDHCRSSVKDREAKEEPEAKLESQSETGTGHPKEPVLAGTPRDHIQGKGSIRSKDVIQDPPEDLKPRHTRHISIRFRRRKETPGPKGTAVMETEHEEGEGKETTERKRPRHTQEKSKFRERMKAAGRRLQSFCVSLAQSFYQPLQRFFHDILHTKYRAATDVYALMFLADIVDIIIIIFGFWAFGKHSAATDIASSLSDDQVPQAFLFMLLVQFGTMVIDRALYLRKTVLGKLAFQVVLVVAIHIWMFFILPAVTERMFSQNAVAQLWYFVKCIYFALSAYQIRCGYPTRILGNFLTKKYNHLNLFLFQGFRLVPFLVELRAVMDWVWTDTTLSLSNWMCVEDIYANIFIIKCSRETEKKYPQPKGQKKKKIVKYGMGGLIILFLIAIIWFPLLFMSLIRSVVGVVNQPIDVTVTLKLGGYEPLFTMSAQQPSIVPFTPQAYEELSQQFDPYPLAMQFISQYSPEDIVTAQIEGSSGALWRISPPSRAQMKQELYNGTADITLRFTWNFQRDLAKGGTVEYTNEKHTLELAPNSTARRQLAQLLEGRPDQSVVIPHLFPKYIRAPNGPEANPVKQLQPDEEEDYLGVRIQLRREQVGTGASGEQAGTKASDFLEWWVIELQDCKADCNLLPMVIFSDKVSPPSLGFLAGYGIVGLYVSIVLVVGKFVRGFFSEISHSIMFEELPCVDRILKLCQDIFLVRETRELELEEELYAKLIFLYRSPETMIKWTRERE

Take LecB-S22A mutant (natural protein): the average stretch-induced current at −80 mmHg, EGFP-mPiezo1-overexpressing H1299 cells, LecB-S22A for 3 h (not significantly changed compared to untreated control cells) is -36.5 pA.
